Test results taken from patent US9260517B2, “Human monoclonal antibodies to human nucleolin” (MUSC Foundation for Research Development, priority 2009, dated 2016).

Tests used:
[1] = target: T1, cell surface nucleolin on MV4-11 AML cells (Homo sapiens, UniProt P19338); assay: Flow cytometry (FACS) binding to MV4-11 cells; conditions: 5 μg/ml, 30 min on ice
T1 construct: endogenous in cells; host or cells: MV4-11 cells
Protocol: (§1) FIG. 12. Binding of HuMAbs to cell surface nucleolin and cytotoxicity to MV4-11 leukemia cells. (FIG. 12A) Anti-nucleolin HuMabs or Rituxan^R (5 μg/ml) were incubated with MV4-11 or normal tonsil cells for 30 min on ice, washed, then incubated with APC-labeled anti-human IgG (Miltenyi). Flow cytometry was performed on a FACSCaliber, and median fluorescence intensity (MFI) is shown.
analysis was performed using a Becton Dickinson FACSCalibur instrument at the MUSC Flow Cytometry Facility, according to established methods. Infection efficiency of B cells infected with […] was assessed by measuring fluorescence of Green Fluorescent Protein 24 h post-infection. Antibodies used to characterize human B cells were obtained from BD Biosciences and are specific for human CD20, CD19, CD23, CD27, CD30, CD38, IgD, IgM, and IgG.

normal tonsil cells = assay: Flow cytometry binding to normal tonsil cells; set-up: species or system human; conditions: 5 μg/ml, 30 min on ice
Protocol: as §1

T1 sequence (P19338 whole entry): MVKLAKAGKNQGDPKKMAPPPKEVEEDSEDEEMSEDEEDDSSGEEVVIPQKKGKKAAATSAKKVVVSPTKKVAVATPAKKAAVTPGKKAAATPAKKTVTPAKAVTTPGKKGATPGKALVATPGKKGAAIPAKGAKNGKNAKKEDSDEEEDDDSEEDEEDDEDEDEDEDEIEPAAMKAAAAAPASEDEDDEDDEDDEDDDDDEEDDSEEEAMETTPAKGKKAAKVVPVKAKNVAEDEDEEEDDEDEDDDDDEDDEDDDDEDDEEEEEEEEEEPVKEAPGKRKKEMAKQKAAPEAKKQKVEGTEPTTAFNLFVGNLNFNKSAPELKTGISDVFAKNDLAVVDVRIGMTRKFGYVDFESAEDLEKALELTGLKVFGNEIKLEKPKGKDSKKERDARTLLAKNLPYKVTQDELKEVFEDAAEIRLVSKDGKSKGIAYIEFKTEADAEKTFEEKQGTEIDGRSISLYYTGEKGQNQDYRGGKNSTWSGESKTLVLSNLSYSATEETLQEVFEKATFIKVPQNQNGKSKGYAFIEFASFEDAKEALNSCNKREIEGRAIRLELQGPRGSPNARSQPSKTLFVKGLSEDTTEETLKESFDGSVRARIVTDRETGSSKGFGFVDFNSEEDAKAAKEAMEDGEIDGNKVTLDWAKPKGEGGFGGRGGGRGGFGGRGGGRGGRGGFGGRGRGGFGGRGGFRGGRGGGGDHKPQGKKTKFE

binding to MV4-11 cells by flow cytometry [1]: not to MV4-11 cells
Substance: rituximab
binding to normal tonsil cells by flow cytometry (normal tonsil cells): bound to normal tonsil cells
